Measured values taken from patent publication US20050244864A1, “Development and use of fluorescent probes of unbound analytes” (priority 2004, published 2005).
Changes are numbered by the printed parent chain.

B1: L1P7 B11: acrylodan-labeled rI-FABP mutein: Y14 I, L38 I, L72 V, Y117 wt (protein, UniProt P02693 2-132, looked up, variant Y14I L38I L72V)
Fatty acid-binding protein, …: AFDGTWKVDRNENIEKFMEKMGINVVKRKLGAHDNLKITITQEGNKFTVKESSNFRNIDVVFELGVDFAYSVADGTELTGTWTMEGNKLVGKFKRVDNGKELIAVREISGNELIQTYTYEGVEAKRIFKKE
modifications: acrylodan label
notes: acrylodan-labeled rI-FABP mutein: Y14 I, L38 I, L72 V, Y117 wt
B2: L1P3 D6: acrylodan-labeled rI-FABP mutein: Y14 L, L38 wt, L72 wt, Y117 wt (protein, UniProt P02693 2-132, looked up, variant Y14L)
Fatty acid-binding protein, …: B1 Fatty acid-binding protein, … with I14L, I38L, V72L
modifications: acrylodan label
B3: L1P17 A8: acrylodan-labeled rI-FABP mutein: Y14 wt, L38 M, L72 G, Y117 F (protein, UniProt P02693 2-132, looked up, variant L38M L72G Y117F)
Fatty acid-binding protein, …: B1 Fatty acid-binding protein, … with I14Y, I38M, V72G, Y117F
modifications: acrylodan label
notes: acrylodan-labeled rI-FABP mutein: Y14 wt, L38 M, L72 G, Y117 F
B4: L1P8 H2: acrylodan-labeled rI-FABP mutein: Y14 M, L38 M, L72 W, Y117 wt (protein, UniProt P02693 2-132, looked up, variant Y14M L38M L72W)
Fatty acid-binding protein, …: B1 Fatty acid-binding protein, … with I14M, I38M, V72W
modifications: acrylodan label
notes: acrylodan-labeled rI-FABP mutein: Y14 M, L38 M, L72 W, Y117 wt
B5: L1P7 H4: acrylodan-labeled rI-FABP mutein: Y14 I, L38 M, L72 W, Y117 wt (protein, UniProt P02693 2-132, looked up, variant Y14I L38M L72W)
Fatty acid-binding protein, …: B1 Fatty acid-binding protein, … with I38M, V72W
modifications: acrylodan label
notes: acrylodan-labeled rI-FABP mutein: Y14 I, L38 M, L72 W, Y117 wt
B6: L1P16 G10: acrylodan-labeled rI-FABP mutein: Y14 W, L38 wt, L72 M, Y117 A (protein, UniProt P02693 2-132, looked up, variant Y14W L72M Y117A)
Fatty acid-binding protein, …: B1 Fatty acid-binding protein, … with I14W, I38L, V72M, Y117A
modifications: acrylodan label
notes: acrylodan-labeled rI-FABP mutein: Y14 W, L38 wt, L72 M, Y117 A
B7: L1P1 F7: acrylodan-labeled rI-FABP mutein: Y14 L, L38 M, L72 wt, Y117 F (protein, UniProt P02693 2-132, looked up, variant Y14L L38M Y117F)
Fatty acid-binding protein, …: B1 Fatty acid-binding protein, … with I14L, I38M, V72L, Y117F
modifications: acrylodan label
notes: acrylodan-labeled rI-FABP mutein: Y14 L, L38 M, L72 wt, Y117 F
B8: L1P14 A9: acrylodan-labeled rI-FABP mutein: Y14 L, L38 wt, L72 G, Y117 I (protein, UniProt P02693 2-132, looked up, variant Y14L L72G Y117I)
Fatty acid-binding protein, …: B1 Fatty acid-binding protein, … with I14L, I38L, V72G, Y117I
modifications: acrylodan label
notes: acrylodan-labeled rI-FABP mutein: Y14 L, L38 wt, L72 G, Y117 I
B9: L1P9 G10: acrylodan-labeled rI-FABP mutein: Y14 wt, L38 I, L72 G, Y117 wt (protein, UniProt P02693 2-132, looked up, variant L38I L72G)
Fatty acid-binding protein, …: B1 Fatty acid-binding protein, … with I14Y, V72G
modifications: acrylodan label
B10: L1P17 A1: acrylodan-labeled rI-FABP mutein: Y14 I, L38 wt, L72 W, Y117 wt (protein, UniProt P02693 2-132, looked up, variant Y14I L72W)
Fatty acid-binding protein, …: B1 Fatty acid-binding protein, … with I38L, V72W
modifications: acrylodan label
B11: L1P12 G10: acrylodan-labeled rI-FABP mutein: Y14 I, L38 wt, L72 wt, Y117 wt (protein, UniProt P02693 2-132, looked up, variant Y14I)
Fatty acid-binding protein, …: B1 Fatty acid-binding protein, … with I38L, V72L
modifications: acrylodan label
B12: L1P5 A10: acrylodan-labeled rI-FABP mutein: Y14 wt, L38 wt, L72 wt, Y117 A (protein, UniProt P02693 2-132, looked up, variant Y117A)
Fatty acid-binding protein, …: B1 Fatty acid-binding protein, … with I14Y, I38L, V72L, Y117A
modifications: acrylodan label
notes: acrylodan-labeled rI-FABP mutein: Y14 wt, L38 wt, L72 wt, Y117 A
B13: L1P11 F12: acrylodan-labeled rI-FABP mutein: Y14 L, L38 I, L72 wt, Y117 wt (protein, UniProt P02693 2-132, looked up, variant Y14L L38I)
Fatty acid-binding protein, …: B1 Fatty acid-binding protein, … with I14L, V72L
modifications: acrylodan label
B14: L1P1 C3: acrylodan-labeled rI-FABP mutein: Y14 M, L38 wt, L72 W, Y117 wt (protein, UniProt P02693 2-132, looked up, variant Y14M L72W)
Fatty acid-binding protein, …: B1 Fatty acid-binding protein, … with I14M, I38L, V72W
modifications: acrylodan label
B15: L1P8 D4: acrylodan-labeled rI-FABP mutein: Y14 M, L38 wt, L72 M, Y117 A (protein, UniProt P02693 2-132, looked up, variant Y14M L72M Y117A)
Fatty acid-binding protein, …: B1 Fatty acid-binding protein, … with I14M, I38L, V72M, Y117A
modifications: acrylodan label
notes: acrylodan-labeled rI-FABP mutein: Y14 M, L38 wt, L72 M, Y117 A

What was measured:
Type in all cases: binding
[1] = Probe fluorescence ratio response to palmitate:BSA complex, relative to ADIFAB2 (ΔR/ΔRAD2); conditions: fluorescence response (R-Ro) relative to ADIFAB2; palmitate
Description: (§1) The intensity ratio (“R” value) for a given probe is determined. The ratio is calculated using the following formula: R=Fλ1/Fλ2 wherein, Fλ1, is the measured fluorescence intensities (intensity of sample with probe present minus intensity of sample without probe present) at wavelength 1 and Fλ2 is the measured fluorescence intensities (intensity of sample with probe present minus intensity of sample without probe present) at wavelength 2. Then, for a given probe, ΔR, the difference in R value between the measurement in the presence of the analyte and in the absence of the analyte, is calculated as follows: ΔR=R+analyte−R0 The ΔR value for a given probe is then compared to a reference probe, for example, ADIFAB or ADIFAB2, by ΔR/ΔRreference. This value is an indication of how dissimilar the new probe (derived by mutation of the template) is to the reference. By this method, probes with new and useful characteristics may be identified. Measurements of fluorescence intensities are obtained using standard techniques.
(§2) Mutant probes were screened in 96-well plates by fluorescence response to five fatty acids: arachidonate, linolenate, linoleate, oleate, and palmitate. Each fatty acid was prepared as a complex with BSA by slow addition of 50 mM stocks of fatty acid sodium salts at pH 11 to 600 μM BSA in HEPES buffer. During the formation of complexes, 15 μL aliquots were periodically measured with the reference probe, ADIFAB2, to determine the ΔR value upon excitation at 375 nm and fluorescence emission at 550 and 457 nm using a Fluorolog-3 spectrofluorometer (Jobin Yvon) (Richieri et al, Molecular and Cellular Biochemistry (1999), 192:87-94 & Richieri et al, J. Biol. Chem. (1996), 271:31068-31074). Complexes were prepared such that the final ΔR was approximately 0.4 which correspond to [FFAu] ranging from 100 to 1000 nM depending on FFA type. These complexes buffer or clamp the FFAu levels at fixed values and therefore ensure the accurate comparison of different probes with the same FFAu concentrations. In contrast, addition of FFAu alone (i.e. uncomplexed FFA) introduces considerable uncertainty in comparing different probes because the FFAu level will be affected by binding to the dispensing device, the walls of the multi-well plates and to the probe itself. Thus, the terms “buffer” and “clamp” as used in this particular context herein are taken to mean the ability of a carrier macromolecule to complex with an unbound metabolite so that the unbound metabolite is presented accurately for measurement purposes and is prevented from non-specific binding such as binding to laboratory apparatus.
(§3) Plates were prepared and read in two stages. First, complexes and fatty acid free BSA were diluted to 6 μM BSA in HEPES and added to the 96-well plate at 300 μL per well. A MultiProbe II HT (Perkin Elmer) (an automated liquid handling system) was used to facilitate plate preparation for high throughput screening, but any automated or manual pipetting system will suffice. The background fluorescence was then measured at the same wavelengths as used for ADIFAB2 using a Fluorolog-3 spectrofluorometer with an external Micromax 384 fluorescence plate reader (Jobin Yvon). In the second stage, 30 μL aliquots of the mutant probes were added to multiple wells of the plate, one for each fatty acid and one with fatty acid free BSA only, and the fluorescence intensity at each wavelength was again measured on the plate reader. After subtraction of the background fluorescence, the fluorescence ratio of each well was calculated.
(§4) The fluorescence response was quantitatively compared to ADIFAB2 to search for changes in magnitude and fatty acid profile; for example the response to one fatty acid relative to another. For each probe the ratio differences (AR) between wells with each fatty acid compared to a corresponding well with fatty acid free BSA were recorded. […]

[2] = Probe fluorescence ratio response to linoleate:BSA complex, relative to ADIFAB2 (ΔR/ΔRAD2); conditions: fluorescence response (R-Ro) relative to ADIFAB2; linoleate
Description: as §1, §2, §3, §4

[3] = Probe fluorescence ratio response to oleate:BSA complex, relative to ADIFAB2 (ΔR/ΔRAD2); conditions: fluorescence response (R-Ro) relative to ADIFAB2; oleate
Description: as §1, §2, §3, §4

[4] = Probe fluorescence ratio response to arachidonate:BSA complex, relative to ADIFAB2 (ΔR/ΔRAD2); conditions: fluorescence response (R-Ro) relative to ADIFAB2; arachidonate
Description: as §1, §2, §3, §4

[5] = Probe fluorescence ratio response to linolenate:BSA complex, relative to ADIFAB2 (ΔR/ΔRAD2); conditions: fluorescence response (R-Ro) relative to ADIFAB2; linolenate
Description: as §1, §2, §3, §4

Molecule	ΔR/ΔRAD2 PA [1]	ΔR/ΔRAD2 LA [2]	ΔR/ΔRAD2 OA [3]	ΔR/ΔRAD2 AA [4]	ΔR/ΔRAD2 LNA [5]
B1	0.8	0.9	0.4	0.7	0.9
B2	0.5	0.8	0.5	0.9	0.9
B3	0.4	0.8	0.7	1.3	0.7
B4	−0.6	−1.5	−1.7	−1.3	−1.3
B5	−0.6	−1.3	−1.4	−1.0	−1.1
B6	0.8	1.1	0.7	0.9	1.3
B7	0.5	0.9	0.5	0.9	1.0
B8	0.2	0.8	0.4	0.8	0.8
B9	0.4	0.8	0.9	1.0	0.7
B10	−0.4	−1.0	−1.2	−0.8	−0.9
B11	0.8	0.9	0.5	0.8	1.0
B12	0.4	1.2	1.1	1.5	0.7
B13	0.7	1.1	0.7	1.0	1.2
B14	−0.4	−1.1	−1.3	−0.9	−1.0
B15	0.9	2.0	1.1	1.6	2.0
